Numbering of substitutions follows the chain as printed. Numbers in names are those of the source.
B1: DRB sensitivity-inducing factor (DSIF), wild type (Spt5 and Spt4) (complex)
chain 1: not shown
chain 2: MAFDAIPKDLRGLRACLVCSLVKSFDQFETDGCENCEEFLRMKNNKDNVYDHTSNNFDGIIALTTPTDSWVAKWQRLSRFTRGIYAISVSGTLPQSTLRDMKNRGIVYKSRDRSQR
notes: Spt5, Drosophila; Spt4, Drosophila; No tag cleavage is described; A ~100-kDa Spt5 degradation product lacking the acidic N-terminal region is in each preparation; also called WT DSIF; source: E. coli Rosetta (DE3) pLysS, purified (Talon, anti-FLAG)
B2: DSIF NGN-Asp mutant (complex)
chain 1: not shown
chain 2: B1 chain 2
notes: Spt5, Drosophila, two basic residues of the NGN domain changed to aspartic acid; d numbers are Drosophila Spt5; Spt4, Drosophila; as in m2; source: E. coli Rosetta (DE3) pLysS, purified (Talon, anti-FLAG)
B3: DSIF Spt4 (R79E, R82E, K109E) mutant (complex)
chain 1: not shown
chain 2: B1 chain 2 with R79E, R82E, K109E
notes: Spt5, Drosophila, wild type; as in m2; Spt4, Drosophila, three basic residues changed to glutamic acid; also called Spt4 mutant; source: E. coli, purified as WT DSIF (Talon, anti-FLAG)

Biological target: T1, negative elongation factor (NELF): NELF-A, NELF-B, NELF-D, NELF-E (Drosophila, UniProt Q86NP2 1-1251; Q9Y113 1-594; Q24134 1-578; P92204 1-280)
T1 construct: NELF-A, Drosophila; NELF-B, Drosophila; NELF-D, Drosophila; NELF-E, Drosophila; No tag cleavage is described; source: Sf9, baculovirus, purified (Ni-NTA, anti-FLAG); copies: + + +
Experiment: native gel or EMSA; stalled Pol II elongation complexes plus purified WT or mutant DSIF and NELF together (supershift); room temperature; Torula yeast RNA added; 4% native polyacrylamide gel run at 4 °C
Details: both partners purified

T1 sequence (Q86NP2 whole entry, chain 1 of 4): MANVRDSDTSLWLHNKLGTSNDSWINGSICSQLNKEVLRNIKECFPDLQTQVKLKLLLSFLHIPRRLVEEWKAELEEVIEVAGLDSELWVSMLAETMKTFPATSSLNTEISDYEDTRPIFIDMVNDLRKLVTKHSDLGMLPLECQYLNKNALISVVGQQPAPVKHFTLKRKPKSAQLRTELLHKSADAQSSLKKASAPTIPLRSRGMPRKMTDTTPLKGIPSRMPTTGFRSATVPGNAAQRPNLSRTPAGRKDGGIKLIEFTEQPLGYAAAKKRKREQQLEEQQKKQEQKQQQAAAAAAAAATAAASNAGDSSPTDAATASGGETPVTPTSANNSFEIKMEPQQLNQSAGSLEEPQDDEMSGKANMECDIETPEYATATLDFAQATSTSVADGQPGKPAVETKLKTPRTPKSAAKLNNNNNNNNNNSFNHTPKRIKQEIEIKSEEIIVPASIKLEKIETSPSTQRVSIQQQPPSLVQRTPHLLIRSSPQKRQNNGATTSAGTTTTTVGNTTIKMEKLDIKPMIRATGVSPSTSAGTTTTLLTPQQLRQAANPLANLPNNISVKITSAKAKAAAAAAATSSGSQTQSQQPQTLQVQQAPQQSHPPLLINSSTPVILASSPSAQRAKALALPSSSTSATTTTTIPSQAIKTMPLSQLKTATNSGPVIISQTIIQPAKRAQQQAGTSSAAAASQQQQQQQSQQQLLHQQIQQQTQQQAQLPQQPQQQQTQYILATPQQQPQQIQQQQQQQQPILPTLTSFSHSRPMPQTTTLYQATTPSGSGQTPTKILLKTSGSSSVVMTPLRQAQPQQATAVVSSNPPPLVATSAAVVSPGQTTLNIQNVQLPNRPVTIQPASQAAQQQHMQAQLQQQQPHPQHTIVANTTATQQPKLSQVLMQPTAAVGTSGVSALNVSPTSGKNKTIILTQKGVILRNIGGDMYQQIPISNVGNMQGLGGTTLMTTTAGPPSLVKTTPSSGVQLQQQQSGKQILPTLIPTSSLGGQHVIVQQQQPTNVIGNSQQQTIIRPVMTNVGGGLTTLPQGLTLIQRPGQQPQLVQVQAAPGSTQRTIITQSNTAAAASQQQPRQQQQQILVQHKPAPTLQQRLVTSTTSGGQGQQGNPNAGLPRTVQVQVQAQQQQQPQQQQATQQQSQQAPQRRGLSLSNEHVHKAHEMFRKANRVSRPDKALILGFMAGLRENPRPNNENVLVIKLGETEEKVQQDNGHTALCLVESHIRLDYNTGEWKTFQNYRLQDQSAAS
T1 sequence (Q9Y113 whole entry, chain 2 of 4): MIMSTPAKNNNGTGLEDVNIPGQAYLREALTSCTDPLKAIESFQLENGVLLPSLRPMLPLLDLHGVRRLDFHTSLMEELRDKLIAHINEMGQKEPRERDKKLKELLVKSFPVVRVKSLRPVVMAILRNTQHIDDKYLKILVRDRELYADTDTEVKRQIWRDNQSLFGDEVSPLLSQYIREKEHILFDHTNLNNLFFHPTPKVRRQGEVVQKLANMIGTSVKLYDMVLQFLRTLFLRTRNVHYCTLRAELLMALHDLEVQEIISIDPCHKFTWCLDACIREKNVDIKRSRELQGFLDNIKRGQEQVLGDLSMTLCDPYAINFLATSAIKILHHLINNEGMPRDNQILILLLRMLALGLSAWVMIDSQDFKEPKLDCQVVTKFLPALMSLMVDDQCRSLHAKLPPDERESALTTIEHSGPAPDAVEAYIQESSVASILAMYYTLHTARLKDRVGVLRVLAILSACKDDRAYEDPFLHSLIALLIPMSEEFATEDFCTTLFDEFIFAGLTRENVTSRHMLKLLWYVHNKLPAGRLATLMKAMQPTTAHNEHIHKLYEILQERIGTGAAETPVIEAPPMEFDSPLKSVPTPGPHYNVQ
T1 sequence (Q24134 whole entry, chain 3 of 4): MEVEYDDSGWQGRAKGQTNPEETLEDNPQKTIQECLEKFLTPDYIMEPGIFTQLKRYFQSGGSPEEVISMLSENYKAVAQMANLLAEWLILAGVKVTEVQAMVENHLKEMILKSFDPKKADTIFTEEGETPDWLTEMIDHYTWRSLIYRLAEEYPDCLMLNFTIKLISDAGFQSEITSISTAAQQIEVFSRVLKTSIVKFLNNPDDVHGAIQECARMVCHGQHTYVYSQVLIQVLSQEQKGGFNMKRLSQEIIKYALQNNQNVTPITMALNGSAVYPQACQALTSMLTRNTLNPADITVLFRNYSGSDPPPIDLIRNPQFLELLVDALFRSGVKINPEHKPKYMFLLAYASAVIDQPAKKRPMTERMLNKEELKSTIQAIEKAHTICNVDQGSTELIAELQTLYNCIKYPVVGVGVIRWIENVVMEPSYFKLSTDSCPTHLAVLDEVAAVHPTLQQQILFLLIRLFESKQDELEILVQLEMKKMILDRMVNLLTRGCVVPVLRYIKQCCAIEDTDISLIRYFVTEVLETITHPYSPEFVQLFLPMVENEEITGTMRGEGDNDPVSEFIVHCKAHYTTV
T1 sequence (P92204 whole entry, chain 4 of 4): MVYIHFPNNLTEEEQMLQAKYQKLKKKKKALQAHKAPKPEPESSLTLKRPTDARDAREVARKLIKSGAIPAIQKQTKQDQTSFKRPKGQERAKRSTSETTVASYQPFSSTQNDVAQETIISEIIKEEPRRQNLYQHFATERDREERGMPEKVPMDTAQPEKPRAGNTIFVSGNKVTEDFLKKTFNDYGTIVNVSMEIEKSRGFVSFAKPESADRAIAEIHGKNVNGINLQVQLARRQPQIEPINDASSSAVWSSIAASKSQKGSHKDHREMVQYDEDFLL

binding result | Binder
binds | B1
binds | B2
binds | B3

From PMC10482750, “Assessment of the roles of Spt5-nucleic acid contacts in promoter proximal pausing of RNA polymerase II” (The Journal of Biological Chemistry, 2023)
